Assay results taken from the supplement of paper PMC7125110.
± gives the standard error. For part of these data: Variants at the floor of the assay were thinned out.

B1: glmS ribozyme (parent)
chain: AUAAAAGCGCCAGAACUACAGAAAUGUAGUUGACGAGGAGGAGGUUUAUCGAAUUUUCGGCGGAUGCCUCCAAA

Tests used:
Details in all cases: with glucosamine-6-phosphate
glucosamine-6-phosphate [1] = variants of: B1; assay: kcat; higher = faster cleavage; RNA array
Procedure, shortened: (§1)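 Tiles bearing barcoded ribozyme variants, transcribed in situ by E. coli RNA polymerase on sequenced MiSeq chips, were imaged over ~14 h at 37 °C using a hybridised Cy3 probe. Glucosamine-6-phosphate was supplied at 40 μM to 10 mM in HEPES/KCl/Mg(OAc)2 buffer. kobs came from one- or two-exponential decay fits to normalised per-tile medians, and weighted Michaelis–Menten fits then provided kcat and KM.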

glucosamine-6-phosphate [2] = variants of: B1; assay: self-cleavage kobs at 40 uM GlcN6P; higher = faster cleavage; RNA array
Procedure, shortened: as §1

glucosamine-6-phosphate [3] = variants of: B1; assay: self-cleavage kobs at 640 uM GlcN6P; higher = faster cleavage; RNA array
Procedure, shortened: as §1

glucosamine-6-phosphate [4] = variants of: B1; assay: self-cleavage kobs at 10000 uM GlcN6P; higher = faster cleavage; RNA array
Procedure, shortened: as §1

glucosamine-6-phosphate [5] = variants of: B1; assay: self-cleavage kobs at 160 uM GlcN6P; higher = faster cleavage; RNA array
Procedure, shortened: as §1

glucosamine-6-phosphate [6] = variants of: B1; assay: KM; higher = weaker cofactor use; RNA array
Procedure, shortened: as §1

glucosamine-6-phosphate [7] = variants of: B1; assay: self-cleavage kobs at 2500 uM GlcN6P; higher = faster cleavage; RNA array
Procedure, shortened: as §1

Row | Variant | kcat (glucosamine-6-phosphate [1]) [s⁻¹] | self-cleavage kobs at 40 uM GlcN6P (glucosamine-6-phosphate [2]) [s⁻¹] | self-cleavage kobs at 640 uM GlcN6P (glucosamine-6-phosphate [3]) [s⁻¹] | self-cleavage kobs at 10000 uM GlcN6P (glucosamine-6-phosphate [4]) [s⁻¹] | self-cleavage kobs at 160 uM GlcN6P (glucosamine-6-phosphate [5]) [s⁻¹] | KM (glucosamine-6-phosphate [6]) [µM] | self-cleavage kobs at 2500 uM GlcN6P (glucosamine-6-phosphate [7]) [s⁻¹]
1 | A39G C67A | 0.00703 ± 0.003 | 0.000425 ± 7.2e-05 | 0.00288 ± 0.00088 | 0.00689 ± 0.0015 |  |  | 
2 | C11A G60C | < 1e-05 |  |  |  | < 1e-05 |  | 
3 | A15C U47C C71U | 0.000301 ± 5.9e-06 |  | 0.000129 ± 2.7e-05 | 0.000275 ± 4.5e-05 |  | 867 ± 47 | 0.000228 ± 4.9e-05
4 | G37A G40U | 0.000159 ± 2e-05 |  | 3.99e-05 ± 7.5e-06 | 0.000151 ± 4.4e-05 |  | 2050 ± 490 | 8.45e-05 ± 9.3e-06
5 | U54G U65A | 0.00375 ± 0.00091 | 9.07e-05 ± 1.5e-05 | 0.0008 ± 0.00014 | 0.00315 ± 0.00065 | 0.000213 ± 3.8e-05 | 2250 ± 730 | 0.00199 ± 0.00034
6 | C50U A53G | 6.82e-05 ± 1.3e-06 |  | 3.45e-05 ± 1.6e-05 | 6.42e-05 ± 1.5e-05 |  | 642 ± 54 | 5.41e-05 ± 1.5e-05
7 | U65A C67U | 0.00212 ± 0.00035 | 7.1e-05 ± 8.1e-06 | 0.000793 ± 8.5e-05 | 0.00225 ± 0.00023 | 0.00022 ± 2.8e-05 | 1260 ± 320 | 0.00117 ± 0.00013
8 | A33U A52G | 3.65e-05 ± 1.3e-05 |  |  | 1.94e-05 ± 7.9e-06 |  |  | 
9 | U31C U54G | 0.00413 ± 0.0012 | 0.000143 ± 2.5e-05 | 0.00116 ± 0.00017 | 0.00388 ± 0.00065 | 0.000283 ± 4.9e-05 | 1770 ± 710 | 0.00211 ± 0.0004
10 | C16A G40U | 9.3e-05 ± 2.3e-05 |  | 4.49e-05 ± 1.2e-05 | 7.36e-05 ± 1.2e-05 |  |  | 0.000122 ± 1.6e-05
11 | U31A U55C | 0.0168 ± 0.0039 | 0.000283 ± 4.3e-05 | 0.00293 ± 0.00082 | 0.0127 ± 0.0018 | 0.000647 ± 0.00012 | 3130 ± 990 | 0.00826 ± 0.0023
12 | A42U C71A | 0.000146 ± 7.1e-05 |  |  | 8.25e-05 ± 2.2e-05 |  |  | 3.16e-05 ± 8.6e-06
13 | C58A G66U | 5.19e-05 ± 5.8e-06 |  |  | 4.3e-05 ± 5.6e-06 |  |  | 
14 | G32A A64U | < 1e-05 | < 1e-05 | < 1e-05 |  | < 1e-05 |  | 
15 | U47G C70G | 0.000127 ± 1.9e-05 | 5.74e-05 ± 9e-06 | 0.000101 ± 1.2e-05 |  | 0.000147 ± 2.1e-05 |  | 0.000138 ± 1.5e-05
16 | A33C U55A | 0.000974 ± 0.00015 |  | 0.000183 ± 3.5e-05 | 0.000717 ± 7.8e-05 | 3.03e-05 ± 1.4e-05 | 3160 ± 940 | 0.000519 ± 9.2e-05
